The supplement of paper PMC6757056
± gives the standard deviation of the averaged measurements.

B1: library; a variant is named by its letters at N, in order (parent)
chain: GCUGUCACCGGUGCUUGGUACGUUAUAUUCAGCCGGUCUGAUGAGUCUNNNNNNAGACGAAACAGC

How the values were obtained:
(6R,S)-folinic acid [1] = variants of: B1; assay: normalized RNA/DNA level without ligand (relative to sTRSVctl = 100) (log10 (% of sTRSVctl)); HEK293T overexpressing SLC46A1; higher = less ribozyme self-cleavage, higher mRNA level; settings: without (6R,S)-folinic acid; ligand present: no
How it was run: (§1)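 Library plasmids encoding reporter-linked ribozyme switches (mCherry, or eGFP for some folinic acid experiments) were transfected into HEK293T at 4 µg per 6-well well. Ligand, when used, was added 1 h before transfection. Total RNA was extracted with EDTA 72 h later, then reverse-transcribed, amplified, barcoded and sequenced. RNA level was RNA reads over DNA reads, divided by a spiked-in non-cleaving control (or the top 25 sequences), ×100, log10; only sequences with ≥100 DNA reads were kept.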

(6R,S)-folinic acid [2] = variants of: B1; assay: normalized RNA/DNA level with ligand (relative to sTRSVctl = 100) (log10 (% of sTRSVctl)); HEK293T overexpressing SLC46A1; ligand concentration (+) RNA-Seq: 6 mM; higher = less ribozyme self-cleavage, higher mRNA level; settings: with (6R,S)-folinic acid; ligand present: yes
How it was run: as §1

| Variant | normalized RNA/DNA level without ligand (log10) ((6R,S)-folinic acid [1]) | normalized RNA/DNA level with ligand (log10) ((6R,S)-folinic acid [2]) |
| --- | --- | --- |
| CACUCC | 2.044 ± 0.0027 | 2.02 ± 0.04 |
| CACUCG | 2.01 ± 0.03 | 2 ± 0.024 |
| CACUCA | 2.013 ± 0.0028 | 2.03 ± 0.025 |
| AACUUU | 2.01 ± 0.022 | 2.01 ± 0.022 |
| AACUUC | 2.063 ± 0.0082 | 2.039 ± 0.014 |
| CACAUU | 2.02 ± 0.026 | 2.02 ± 0.059 |
| CACAUG | 2.02 ± 0.01 | 2.018 ± 0.017 |
| CACAUC | 2.035 ± 0.0021 | 2.04 ± 0.025 |
| AACCUC | 2.1092 ± 0.0019 | 2.07 ± 0.052 |
| AACCUG | 1.972 ± 0.0045 | 2.02 ± 0.039 |
| CACCGU | 2.02 ± 0.023 | 2.03 ± 0.033 |
| CACCGA | 2.021 ± 0.0036 | 2.04 ± 0.04 |
| CACCGC | 2.047 ± 0.0053 | 2.04 ± 0.034 |
| CACCGG | 1.9715 ± 0.00014 | 2.01 ± 0.0069 |
| CACGCC | 2.041 ± 0.011 | 1.99 ± 0.047 |
| CACGCU | 2.042 ± 0.0097 | 2.034 ± 0.011 |
| CACGCG | 2 ± 0.023 | 1.997 ± 0.0065 |
| GACGCU | 2.05 ± 0.0071 | 2.03 ± 0.021 |
| GACGCG | 1.9961 ± 0.00035 | 2.032 ± 0.015 |
| GACGCA | 2.005 ± 0.0025 | 2.01 ± 0.045 |

| Variant | normalized RNA/DNA level without ligand (log10) ((6R,S)-folinic acid [1]) | normalized RNA/DNA level with ligand (log10) ((6R,S)-folinic acid [2]) |
| --- | --- | --- |
| CACGAG | 1.917 ± 0.0095 | 2.003 ± 0.007 |
| CACGAA | 1.956 ± 0.0025 | 1.94 ± 0.039 |
| CACGAC | 2.02 ± 0.023 | 2.02 ± 0.032 |
| GAGAGC | 1.945 ± 0.01 | 2.03 ± 0.042 |
| UACGGC | 2.05 ± 0.0049 | 2.05 ± 0.063 |
| GAGAUC | 2.038 ± 0.0061 | 2.001 ± 0.014 |
| GAGAUA | 1.993 ± 0.011 | 2.03 ± 0.026 |
| GAGAUG | 1.926 ± 0.0081 | 2.02 ± 0.035 |
| GAGAUU | 2.017 ± 0.0046 | 2.01 ± 0.022 |
| UAGAUA | 1.961 ± 0.0041 | 2.01 ± 0.025 |
| UAGAUU | 1.98 ± 0.0065 | 2.01 ± 0.047 |
| UAGAUC | 2.0543 ± 0.0014 | 2.06 ± 0.055 |
| AACAUU | 2.03 ± 0.019 | 2.02 ± 0.022 |
| AACUGU | 1.97 ± 0.016 | 2.007 ± 0.02 |
| AACUGC | 2.048 ± 0.015 | 2.06 ± 0.038 |
| UAAUCU | 2.021 ± 0.012 | 2.046 ± 0.0022 |
| UACAGC | 1.991 ± 0.0074 | 2.02 ± 0.05 |
| GACUUA | 1.982 ± 0.0071 | 1.99 ± 0.022 |
| GACUUC | 2.08 ± 0.029 | 2.064 ± 0.014 |
| GACUUU | 1.9897 ± 4.9e-05 | 1.97 ± 0.037 |

| Variant | normalized RNA/DNA level without ligand (log10) ((6R,S)-folinic acid [1]) | normalized RNA/DNA level with ligand (log10) ((6R,S)-folinic acid [2]) |
| --- | --- | --- |
| GACAAG | 1.9442 ± 0.00015 | 2.008 ± 0.02 |
| GACAAU | 1.967 ± 0.012 | 1.99 ± 0.045 |
| AACGGA | 1.969 ± 0.019 | 2.02 ± 0.028 |
| AACGGC | 2.058 ± 0.0083 | 2.03 ± 0.027 |
| AACGGU | 1.96 ± 0.022 | 2 ± 0.021 |
| AACGGG | 1.892 ± 0.0076 | 2.01 ± 0.032 |
| GAAUUU | 2.029 ± 0.01 | 2.01 ± 0.022 |
| GAAUUC | 2.01 ± 0.0081 | 2.02 ± 0.024 |
| UACGAA | 1.913 ± 0.0081 | 1.99 ± 0.03 |
| AACCCG | 1.99 ± 0.0042 | 2.02 ± 0.044 |
| AACCCA | 2.033 ± 0.016 | 2.03 ± 0.022 |
| AACCCU | 2.047 ± 0.013 | 2.04 ± 0.036 |
| AACCAC | 2.007 ± 0.0059 | 1.963 ± 0.015 |
| UAGACC | 2.039 ± 0.0018 | 2.013 ± 0.016 |
| CAGCGC | 2.046 ± 0.016 | 2.01 ± 0.039 |
| CAGCGA | 2.03 ± 0.0044 | 2.002 ± 0.0065 |
| CAAUUG | 2.014 ± 0.0049 | 2.06 ± 0.023 |
| CAAUUU | 1.995 ± 0.0068 | 2 ± 0.032 |
